Laboratory results: patent US20170128527A1

Target: Human Prolactin Receptor (PrlR) (human) (UniProt P16471)
Test: cell-based or functional assay

UniProt P16471, sequence (P16471 25-622 limits assumed): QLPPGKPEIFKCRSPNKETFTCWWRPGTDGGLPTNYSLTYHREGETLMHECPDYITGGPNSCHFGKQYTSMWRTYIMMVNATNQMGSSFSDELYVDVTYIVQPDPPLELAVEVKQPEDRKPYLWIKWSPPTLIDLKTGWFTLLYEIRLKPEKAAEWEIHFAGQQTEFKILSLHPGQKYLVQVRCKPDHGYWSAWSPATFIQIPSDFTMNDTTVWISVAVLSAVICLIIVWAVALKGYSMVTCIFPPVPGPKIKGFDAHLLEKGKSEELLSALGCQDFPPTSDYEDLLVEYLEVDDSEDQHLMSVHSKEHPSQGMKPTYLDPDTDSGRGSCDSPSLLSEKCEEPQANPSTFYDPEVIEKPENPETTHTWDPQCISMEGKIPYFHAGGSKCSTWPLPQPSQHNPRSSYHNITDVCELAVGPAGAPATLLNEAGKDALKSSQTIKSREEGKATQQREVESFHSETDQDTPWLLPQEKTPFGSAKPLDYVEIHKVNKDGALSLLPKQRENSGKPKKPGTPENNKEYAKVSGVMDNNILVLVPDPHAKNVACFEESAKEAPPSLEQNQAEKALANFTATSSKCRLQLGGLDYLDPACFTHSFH

Prl receptor antagonist Prl Δ1-9 S33A, Q73L, G129R, K190R (SEQ ID NO: 13) (from UniProt P01236 38-227) (ligand)
Invasion (AU), U251 MG cells, CytoSelect Cell Invasion Assay, OD 560 nm; Prl 200 ng/ml + antagonist 200 ng/ml (control 0.380): 0.379 AU | Invasion (AU), U251 MG cells, CytoSelect Cell Invasion Assay, OD 560 nm; antagonist alone (control 0.380): 0.385 AU
